B1: 3xFlag-UBL3 (wild-type ubiquitin-like 3/membrane-anchored Ub-fold protein) [not stated] / ATXN10 [human (endogenous in MDA-MB-231)] (parent)
chain 1: MSSNVPADMINLRLILVSGKTKEFLFSPNDSASDIAKHVYDNWPMDWEEEQVSSPNILRLIYQGRFLHGNVTLGALKLPFGKTTVMHLVARETLPEPNSQGQRNREKTGESNCCVIL
chain 2: MAAPRPPPARLSGVMVPAPIQDLEALRALTALFKEQRNRETAPRTIFQRVLDILKKSSHAVELACRDPSQVENLASSLQLITECFRCLRNACIECSVNQNSIRNLDTIGVAVDLILLFRELRVEQESLLTAFRCGLQFLGNIASRNEDSQSIVWVHAFPELFLSCLNHPDKKIVAYSSMILFTSLNHERMKELEENLNIAIDVIDAYQKHPESEWPFLIITDLFLKSPELVQAMFPKLNNQERVTLLDLMIAKITSDEPLTKDDIPVFLRHAELIASTFVDQCKTVLKLASEEPPDDEEALATIRLLDVLCEMTVNTELLGYLQVFPGLLERVIDLLRVIHVAGKETTNIFSNCGCVRAEGDISNVANGFKSHLIRLIGNLCYKNKDNQDKVNELDGIPLILDNCNISDSNPFLTQWVIYAIRNLTEDNSQNQDLIAKMEEQGLADASLLKKVGFEVEKKGEKLILKSTRDTPKP
B2: 3xFlag-UBL3 (wild-type ubiquitin-like 3/membrane-anchored Ub-fold protein) [not stated] / TUBB4A [human (endogenous in MDA-MB-231)] (parent)
chain 1: B1 chain 1
chain 2: MREIVHLQAGQCGNQIGAKFWEVISDEHGIDPTGTYHGDSDLQLERINVYYNEATGGNYVPRAVLVDLEPGTMDSVRSGPFGQIFRPDNFVFGQSGAGNNWAKGHYTEGAELVDAVLDVVRKEAESCDCLQGFQLTHSLGGGTGSGMGTLLISKIREEFPDRIMNTFSVVPSPKVSDTVVEPYNATLSVHQLVENTDETYCIDNEALYDICFRTLKLTTPTYGDLNHLVSATMSGVTTCLRFPGQLNADLRKLAVNMVPFPRLHFFMPGFAPLTSRGSQQYRALTVPELTQQMFDAKNMMAACDPRHGRYLTVAAVFRGRMSMKEVDEQMLSVQSKNSSYFVEWIPNNVKTAVCDIPPRGLKMAATFIGNSTAIQELFKRISEQFTAMFRRKAFLHWYTGEGMDEMEFTEAESNMNDLVSEYQQYQDATAEEGEFEEEAEEEVA

Variants of B1 are the subject of one assay. Kind of assay: Flag antibody-bead pull-down, on-bead digestion, LC-MS/MS label-free quantification. Particulars: with ATXN10 [human (endogenous in MDA-MB-231)]; lysates of MDA-MB-231 cells; triplicate pull-downs; read off a plot.
Regarding chain 1 MSSNVPADMINLRLILVSGKTKEFLFSPNDSASDIAKHVYDNWPMDWEEEQVSSPNILRLIYQGRFLHGNVTLGALKLPFGKTTVMHLVARETLPEPNSQGQRNREKTGESNAAVIL [chain 1 C113A C114A], the screen value worked out at 5.1 log2.

A further assay covers variants of B2. Described as above. The note with it: with TUBB4A [human (endogenous in MDA-MB-231)]; lysates of MDA-MB-231 cells; triplicate pull-downs; read off a plot.
With chain 1 MSSNVPADMINLRLILVSGKTKEFLFSPNDSASDIAKHVYDNWPMDWEEEQVSSPNILRLIYQGRFLHGNVTLGALKLPFGKTTVMHLVARETLPEPNSQGQRNREKTGESNAAVIL [chain 1 C113A C114A], the screen value was 3.2 log2.

Source of the values: paper PMC6158211.
